In patent US20200054719:

System: thrombin-activatable fibrinolysis inhibitor (TAFI), purified

E-WE thrombin (E. coli derived, non-glycosylated W215A/E217A thrombin)
activated TAFI, measured as hippuric acid generated from hippuryl-arginine (absorbance at 382 nm): E-WE thrombin is a poor activator of TAFI
